In paper PMC11993684, “Fibromodulin selectively accelerates myofibroblast apoptosis in cutaneous wounds by enhancing interleukin 1β signaling” (Nature Communications, 2025):

T1: recombinant human fibromodulin (FMOD) with C-terminal His-tag (human, UniProt Q06828 19-376)
T1 chain: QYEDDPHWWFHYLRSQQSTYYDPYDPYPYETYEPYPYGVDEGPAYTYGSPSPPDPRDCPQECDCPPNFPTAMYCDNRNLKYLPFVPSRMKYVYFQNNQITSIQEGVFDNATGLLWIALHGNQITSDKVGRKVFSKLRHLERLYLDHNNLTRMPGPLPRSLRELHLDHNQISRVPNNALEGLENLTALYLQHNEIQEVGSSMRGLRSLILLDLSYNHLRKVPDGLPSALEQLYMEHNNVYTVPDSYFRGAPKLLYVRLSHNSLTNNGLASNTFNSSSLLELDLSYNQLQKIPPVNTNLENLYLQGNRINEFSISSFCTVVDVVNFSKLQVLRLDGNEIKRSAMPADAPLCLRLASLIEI

B1: recombinant human fibromodulin (FMOD) with C-terminal His-tag (natural protein, UniProt Q06828 19-376, looked up)
chain: QYEDDPHWWFHYLRSQQSTYYDPYDPYPYETYEPYPYGVDEGPAYTYGSPSPPDPRDCPQECDCPPNFPTAMYCDNRNLKYLPFVPSRMKYVYFQNNQITSIQEGVFDNATGLLWIALHGNQITSDKVGRKVFSKLRHLERLYLDHNNLTRMPGPLPRSLRELHLDHNQISRVPNNALEGLENLTALYLQHNEIQEVGSSMRGLRSLILLDLSYNHLRKVPDGLPSALEQLYMEHNNVYTVPDSYFRGAPKLLYVRLSHNSLTNNGLASNTFNSSSLLELDLSYNQLQKIPPVNTNLENLYLQGNRINEFSISSFCTVVDVVNFSKLQVLRLDGNEIKRSAMPADAPLCLRLASLIEI
notes: fibromodulin, human; cDNA of a human FMOD transcript (NM_002023) subcloned into pSecTag2A; secreted into the culture supernatant of CHO-K1 cells; Proteoglycan made in CHO cells; also called His-tagged FMOD; not shown: His-tag, C-terminal, kept

Legend:
[1] = biological target: T2, IL1β-IL1R1-IL1RAP ternary complex formed in vitro from recombinant proteins (human, UniProt P01584 117-269; P14778 18-336; Q9NPH3 21-367); test: pull-down; Pierce His Protein Interaction Pull-Down Kit; 150 μg His-tagged FMOD immobilised as bait; His-tag-free 100 μg IL1β, 100 μg IL1R1, 100 μg IL1RAP, or the complex formed beforehand (100 μg IL1β, 50 μg IL1R1, 50 μg IL1RAP, 4 °C overnight) as prey; eluate by SDS-PAGE and Western blotting; conditions: both partners purified
T2 construct: interleukin 1 beta, human, recombinant, His-tag-free, 17 kDa on SDS-PAGE; as m2; interleukin 1 receptor type 1, recombinant, His-tag-free, 55 kDa on SDS-PAGE; as m3; interleukin 1 receptor accessory protein, recombinant, His-tag-free, 70-75 kDa on SDS-PAGE; as m4; See the notes of m3 and m4 on the bought constructs; also called IL1β-IL1R1-IL1RAP complex; IL1β-IL1R1-ILRAP ternary complex; source: …

[2] = biological target: T1, recombinant human fibromodulin (FMOD) …; test: SPR
[3] = biological target: B1; test: SPR; Biacore 3000; FMOD immobilised on CM5 chip by amine coupling; IL1R1 or IL1RAP in HBS-EP pH 7.4 (0.15 M NaCl, 10 mM HEPES, 3 mM EDTA, 0.005% polysorbate 20), 50 μL/minute; double referencing; Scrubber 2.0; conditions: both partners purified

binding result [1]	koff [2] [s⁻¹]	Kd [3] [nM]	Binder
binds			B1
	0.02	430	recombinant IL1R1 (R&D Systems 269-1R-100/CF) (receptor, human, UniProt P14778 18-336, looked up, interleukin 1 receptor type 1, recombinant, His-tag-free, 55 kDa on SDS-PAGE, carrier-free; also called interleukin 1 receptor type 1; source: bought: R&D Systems (carrier-free)) LEADKCKEREEKIILVSSANEIDVRPCPLNPNEHKGTITWYKDDSKTPVSTEQASRIHQHKEKLWFVPAKVEDSGHYYCVVRNSSYCLRIKISAKFVENEPNLCYNAQAIFKQKLPVAGDGGLVCPYMEFFKNENNELPKLQWYKDCKPLLLDNIHFSGVKDRLIVMNVAEKHRGNYTCHASYTYLGKQYPITRVIEFITLEENKPTRPVIVSPANETMEVDLGSQIQLICNVTGQLSDIAYWKWNGSVIDEDDPVLGEDYYSVENPANKRRSTLITVLNISEIESRFYKHPFTCFAKNTHGIDAAYIQLIYPVTNFQK
